Measured values: patent publication US20070128661A1 (Harvard, published 2007)

T1: Flag-tagged T-bet S508A mutant, immunoprecipitated from 293T cells (UniProt Q9JKD8)
T1 sequence: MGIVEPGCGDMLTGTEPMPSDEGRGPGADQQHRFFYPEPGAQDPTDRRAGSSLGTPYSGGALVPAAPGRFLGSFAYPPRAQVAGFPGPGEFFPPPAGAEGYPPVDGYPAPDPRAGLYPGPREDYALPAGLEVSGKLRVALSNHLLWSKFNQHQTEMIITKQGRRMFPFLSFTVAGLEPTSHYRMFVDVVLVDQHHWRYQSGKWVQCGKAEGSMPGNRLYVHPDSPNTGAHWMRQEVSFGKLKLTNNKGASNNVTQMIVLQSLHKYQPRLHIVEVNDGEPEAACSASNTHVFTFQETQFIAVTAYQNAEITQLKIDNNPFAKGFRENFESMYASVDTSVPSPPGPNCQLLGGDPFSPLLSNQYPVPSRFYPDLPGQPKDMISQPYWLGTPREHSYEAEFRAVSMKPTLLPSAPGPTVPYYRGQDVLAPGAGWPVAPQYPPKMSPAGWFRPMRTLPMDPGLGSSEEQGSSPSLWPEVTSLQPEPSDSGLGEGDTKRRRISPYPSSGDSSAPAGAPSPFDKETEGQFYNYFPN

T2: Flag-tagged T-bet (wild type), immunoprecipitated from 293T cells (UniProt Q9JKD8)
T2 sequence: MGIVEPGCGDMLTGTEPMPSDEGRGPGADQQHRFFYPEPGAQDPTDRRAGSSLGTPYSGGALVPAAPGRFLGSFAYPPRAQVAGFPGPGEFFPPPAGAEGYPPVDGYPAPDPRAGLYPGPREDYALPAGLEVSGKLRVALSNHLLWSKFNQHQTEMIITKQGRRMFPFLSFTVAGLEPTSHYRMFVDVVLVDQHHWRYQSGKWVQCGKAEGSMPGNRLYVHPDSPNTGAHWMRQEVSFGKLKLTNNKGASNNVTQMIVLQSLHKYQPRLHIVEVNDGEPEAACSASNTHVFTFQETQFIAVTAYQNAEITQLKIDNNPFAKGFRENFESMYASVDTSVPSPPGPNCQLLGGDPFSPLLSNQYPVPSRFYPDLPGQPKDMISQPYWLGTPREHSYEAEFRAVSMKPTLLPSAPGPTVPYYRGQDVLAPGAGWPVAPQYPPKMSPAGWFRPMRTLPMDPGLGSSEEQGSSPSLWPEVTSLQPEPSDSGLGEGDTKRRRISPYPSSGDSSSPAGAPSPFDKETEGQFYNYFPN

T3: Flag-tagged T-bet S498A control mutant, immunoprecipitated from 293T cells (UniProt Q9JKD8)
T3 sequence: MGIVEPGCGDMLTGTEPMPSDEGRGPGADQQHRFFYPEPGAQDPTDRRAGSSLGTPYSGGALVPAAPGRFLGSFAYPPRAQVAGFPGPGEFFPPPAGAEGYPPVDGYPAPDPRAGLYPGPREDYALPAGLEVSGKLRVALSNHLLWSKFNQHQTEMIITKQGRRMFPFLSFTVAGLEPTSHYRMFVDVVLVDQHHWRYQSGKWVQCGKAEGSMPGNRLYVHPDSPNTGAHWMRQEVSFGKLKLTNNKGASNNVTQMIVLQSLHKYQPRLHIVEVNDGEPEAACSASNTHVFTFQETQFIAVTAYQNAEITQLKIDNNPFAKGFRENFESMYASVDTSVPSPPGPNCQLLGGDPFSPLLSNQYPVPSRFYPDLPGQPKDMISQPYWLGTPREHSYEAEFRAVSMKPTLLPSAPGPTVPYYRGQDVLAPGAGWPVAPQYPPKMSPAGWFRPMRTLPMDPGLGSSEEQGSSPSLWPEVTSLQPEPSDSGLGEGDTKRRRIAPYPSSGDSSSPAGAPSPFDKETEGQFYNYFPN


What was measured:
[1] = tested on: RelA (NF-kB p65); conditions: ChIP real-time PCR; binding increase in T-bet-/- Th1 cells versus wt
[2] = target: T1, Flag-tagged T-bet S508A mutant, immunoprecipitated from 293T cells
[3] = target: T2, Flag-tagged T-bet (wild type), immunoprecipitated from 293T cells
[4] = target: T3, Flag-tagged T-bet S498A control mutant, immunoprecipitated from 293T cells
[5] = target: endogenous RelA in mouse Th1 cells (mouse, UniProt Q04207 1-549); experiment: cell-based or functional assay
Chain of endogenous RelA in mouse Th1 cells (Q04207 whole entry): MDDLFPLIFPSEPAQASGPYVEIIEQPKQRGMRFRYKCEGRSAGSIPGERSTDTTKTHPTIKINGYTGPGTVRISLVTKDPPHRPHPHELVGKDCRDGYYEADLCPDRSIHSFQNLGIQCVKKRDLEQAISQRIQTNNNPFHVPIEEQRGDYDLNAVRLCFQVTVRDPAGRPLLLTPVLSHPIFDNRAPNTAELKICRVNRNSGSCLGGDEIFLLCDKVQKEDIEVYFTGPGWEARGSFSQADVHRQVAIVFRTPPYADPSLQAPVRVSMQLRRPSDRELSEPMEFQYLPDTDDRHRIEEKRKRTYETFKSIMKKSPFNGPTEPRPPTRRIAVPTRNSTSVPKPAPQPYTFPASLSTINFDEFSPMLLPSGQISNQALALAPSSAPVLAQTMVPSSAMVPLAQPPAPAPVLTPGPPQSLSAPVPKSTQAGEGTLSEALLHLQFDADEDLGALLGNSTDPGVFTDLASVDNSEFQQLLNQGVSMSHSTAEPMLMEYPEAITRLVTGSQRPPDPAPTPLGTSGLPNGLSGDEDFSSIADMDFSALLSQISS

| Molecule | in vitro phosphorylation of T-bet (γ-[32P]ATP, autoradiography) [2] | in vitro phosphorylation of T-bet (γ-[32P]ATP, autoradiography) [3] | in vitro phosphorylation of T-bet (γ-[32P]ATP, autoradiography) [4] | other results |
| --- | --- | --- | --- | --- |
| IL-2 promoter chromatin (ChIP amplicon) | – | – | – | binding signal [1]: 4.5 fold |
| glycogen synthase kinase-3 (recombinant) | – | – | – | in vitro phosphorylation of T-bet by GSK-3 after prephosphorylation with CKI (γ-[32P]ATP) [2]: GSK-3-mediated phosphorylation was markedly decreased in the S508A mutant; in vitro phosphorylation of T-bet by GSK-3 after prephosphorylation with CKI (γ-[32P]ATP) [3]: Hyperphosphorylation of T-bet by GSK-3 was apparent; in vitro phosphorylation of T-bet by GSK-3 after prephosphorylation with CKI (γ-[32P]ATP) [4]: GSK-3 induced wt levels of phosphorylation in the S498A mutant |
| PKA (recombinant) | PKA-induced phosphorylation was not different among the wt, S508A and S498A T-bet proteins | T-bet was also phosphorylated by PKA but with 1000-fold lesser efficiency than CKI | PKA-induced phosphorylation was not different among the wt, S508A and S498A T-bet proteins | – |
| active ERK (recombinant) | – | CKI, but not active ERK, phosphorylated T-bet protein in vitro | – | – |
| casein kinase I (recombinant) | CKI-mediated phosphorylation of the S508A mutant, but not the S498A control mutant, was dramatically reduced compared to wt | CKI, but not active ERK, phosphorylated T-bet protein in vitro | CKI-mediated phosphorylation of the S508A mutant, but not the S498A control mutant, was dramatically reduced compared to wt | – |
| endogenous T-bet in mouse Th1 cells (other, UniProt Q9JKD8 1-530, looked up, phosphoserine at S508 found by mass spectrometry in primary Th1 cells) MGIVEPGCGDMLTGTEPMPSDEGRGPGADQQHRFFYPEPGAQDPTDRRAGSSLGTPYSGGALVPAAPGRFLGSFAYPPRAQVAGFPGPGEFFPPPAGAEGYPPVDGYPAPDPRAGLYPGPREDYALPAGLEVSGKLRVALSNHLLWSKFNQHQTEMIITKQGRRMFPFLSFTVAGLEPTSHYRMFVDVVLVDQHHWRYQSGKWVQCGKAEGSMPGNRLYVHPDSPNTGAHWMRQEVSFGKLKLTNNKGASNNVTQMIVLQSLHKYQPRLHIVEVNDGEPEAACSASNTHVFTFQETQFIAVTAYQNAEITQLKIDNNPFAKGFRENFESMYASVDTSVPSPPGPNCQLLGGDPFSPLLSNQYPVPSRFYPDLPGQPKDMISQPYWLGTPREHSYEAEFRAVSMKPTLLPSAPGPTVPYYRGQDVLAPGAGWPVAPQYPPKMSPAGWFRPMRTLPMDPGLGSSEEQGSSPSLWPEVTSLQPEPSDSGLGEGDTKRRRISPYPSSGDSSSPAGAPSPFDKETEGQFYNYFPN | – | – | – | IL-2 promoter binding of RelA by ChIP with real-time PCR, T-bet-/- versus wt Th1 cells [5]: 4.5 fold |
